Test results published in patent publication EP3632934A1 (F. Hoffmann-La Roche AG, dated 2020).

Molecular target: T1, human OX40 (Sino Biological Inc) (human, UniProt P43489 29-216)
T1 construct: Bought soluble protein used as SPR analyte; also called huOX40
T1 sequence: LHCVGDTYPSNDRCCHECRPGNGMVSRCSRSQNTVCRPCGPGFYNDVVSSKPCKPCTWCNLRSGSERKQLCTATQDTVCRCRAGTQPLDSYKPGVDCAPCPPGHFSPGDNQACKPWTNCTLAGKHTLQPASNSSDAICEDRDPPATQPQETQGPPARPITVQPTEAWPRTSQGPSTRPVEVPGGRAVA
Experiment: SPR, Biacore; against parent 1A7.gr.1

B1: 1A7.gr.SGDS (antibody, V domains shown)
VH: EVQLVQSGAEVKKPGASVKVSCKASGYTFTDSYMSWVRQAPGQGLEWIGDMYPDSGDSSYNQKFRERVTITRDTSTSTAYLELSSLRSEDTAVYYCVLAPRWYFSVWGQGTLVTVSS
VL: DIQMTQSPSSLSASVGDRVTITCRASQDISNYLNWYQQKPGKAPKLLIYYTSRLRSGVPSRFSGSGSGTDFTLTISSLQPEDFATYYCQQGHTLPPTFGQGTKVEIK
B1 was tested. Which “fold loss of binding affinity against 1A7.gr.1” value did it give?
The value was 2 fold.
